From publication PMC11809661 (2024)

Experiments:
[1] = molecular target: T1, Protein S (Mus musculus, UniProt Q08761); assay: ELISA plate-binding
T1 chain: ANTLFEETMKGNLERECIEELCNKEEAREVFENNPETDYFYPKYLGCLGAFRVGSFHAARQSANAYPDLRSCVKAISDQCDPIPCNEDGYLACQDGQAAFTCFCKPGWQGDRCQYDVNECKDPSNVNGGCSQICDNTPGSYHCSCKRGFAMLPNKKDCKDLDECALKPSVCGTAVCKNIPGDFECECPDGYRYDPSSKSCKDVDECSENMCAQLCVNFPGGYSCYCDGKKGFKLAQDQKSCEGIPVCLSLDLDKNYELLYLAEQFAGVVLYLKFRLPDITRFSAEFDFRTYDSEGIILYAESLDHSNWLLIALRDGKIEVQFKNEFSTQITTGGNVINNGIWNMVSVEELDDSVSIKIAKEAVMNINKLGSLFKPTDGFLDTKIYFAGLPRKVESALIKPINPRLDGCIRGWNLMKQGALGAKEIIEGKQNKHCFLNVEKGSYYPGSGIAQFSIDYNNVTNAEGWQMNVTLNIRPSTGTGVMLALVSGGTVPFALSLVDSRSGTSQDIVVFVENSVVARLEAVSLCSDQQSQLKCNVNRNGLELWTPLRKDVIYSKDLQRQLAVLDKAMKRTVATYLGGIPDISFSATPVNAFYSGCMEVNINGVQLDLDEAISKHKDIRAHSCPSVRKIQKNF

[2] = molecular target: T2, Protein S (Homo sapiens, UniProt P07225); assay: ELISA plate-binding
T2 chain: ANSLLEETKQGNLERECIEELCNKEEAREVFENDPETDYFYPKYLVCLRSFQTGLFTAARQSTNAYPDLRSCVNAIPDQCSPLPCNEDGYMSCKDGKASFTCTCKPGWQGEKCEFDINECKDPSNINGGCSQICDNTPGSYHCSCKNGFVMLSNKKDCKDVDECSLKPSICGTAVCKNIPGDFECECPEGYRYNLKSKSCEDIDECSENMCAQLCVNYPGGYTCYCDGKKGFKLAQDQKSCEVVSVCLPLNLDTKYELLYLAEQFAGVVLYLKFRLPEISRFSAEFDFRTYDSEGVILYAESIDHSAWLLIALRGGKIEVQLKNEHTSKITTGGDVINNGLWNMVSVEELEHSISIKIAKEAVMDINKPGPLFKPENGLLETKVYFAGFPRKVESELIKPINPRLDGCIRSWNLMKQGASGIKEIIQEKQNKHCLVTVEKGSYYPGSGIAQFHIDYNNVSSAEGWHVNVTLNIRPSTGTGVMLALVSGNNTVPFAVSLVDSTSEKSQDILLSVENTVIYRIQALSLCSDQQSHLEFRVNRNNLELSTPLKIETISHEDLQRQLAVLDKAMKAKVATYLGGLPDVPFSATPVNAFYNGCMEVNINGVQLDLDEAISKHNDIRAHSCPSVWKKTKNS

B1: C4BPβ 1-119 (protein)
chain: MFFWCACCLMVAWRVSASDAEHCPELPPVDNSIFVAKEVEGQILGTYVCIKGYHLVGKKTLFCNASKEWDNTTTECRLGHCPDPVLVNGEFSSSGPVNVSDKITFMCNDHYILKGSNRS
Kd [1]: 0.21 nM | Kd [2]: 0.86 nM
